In patent US20140199325A1:

Target: fibronectin (FN)
Test: solid phase ELISA, HEK293T/17 lysate on FN-coated wells, detected with Cub7402, normalised for expression

Chain of fibronectin (FN) (P02751 32-2477): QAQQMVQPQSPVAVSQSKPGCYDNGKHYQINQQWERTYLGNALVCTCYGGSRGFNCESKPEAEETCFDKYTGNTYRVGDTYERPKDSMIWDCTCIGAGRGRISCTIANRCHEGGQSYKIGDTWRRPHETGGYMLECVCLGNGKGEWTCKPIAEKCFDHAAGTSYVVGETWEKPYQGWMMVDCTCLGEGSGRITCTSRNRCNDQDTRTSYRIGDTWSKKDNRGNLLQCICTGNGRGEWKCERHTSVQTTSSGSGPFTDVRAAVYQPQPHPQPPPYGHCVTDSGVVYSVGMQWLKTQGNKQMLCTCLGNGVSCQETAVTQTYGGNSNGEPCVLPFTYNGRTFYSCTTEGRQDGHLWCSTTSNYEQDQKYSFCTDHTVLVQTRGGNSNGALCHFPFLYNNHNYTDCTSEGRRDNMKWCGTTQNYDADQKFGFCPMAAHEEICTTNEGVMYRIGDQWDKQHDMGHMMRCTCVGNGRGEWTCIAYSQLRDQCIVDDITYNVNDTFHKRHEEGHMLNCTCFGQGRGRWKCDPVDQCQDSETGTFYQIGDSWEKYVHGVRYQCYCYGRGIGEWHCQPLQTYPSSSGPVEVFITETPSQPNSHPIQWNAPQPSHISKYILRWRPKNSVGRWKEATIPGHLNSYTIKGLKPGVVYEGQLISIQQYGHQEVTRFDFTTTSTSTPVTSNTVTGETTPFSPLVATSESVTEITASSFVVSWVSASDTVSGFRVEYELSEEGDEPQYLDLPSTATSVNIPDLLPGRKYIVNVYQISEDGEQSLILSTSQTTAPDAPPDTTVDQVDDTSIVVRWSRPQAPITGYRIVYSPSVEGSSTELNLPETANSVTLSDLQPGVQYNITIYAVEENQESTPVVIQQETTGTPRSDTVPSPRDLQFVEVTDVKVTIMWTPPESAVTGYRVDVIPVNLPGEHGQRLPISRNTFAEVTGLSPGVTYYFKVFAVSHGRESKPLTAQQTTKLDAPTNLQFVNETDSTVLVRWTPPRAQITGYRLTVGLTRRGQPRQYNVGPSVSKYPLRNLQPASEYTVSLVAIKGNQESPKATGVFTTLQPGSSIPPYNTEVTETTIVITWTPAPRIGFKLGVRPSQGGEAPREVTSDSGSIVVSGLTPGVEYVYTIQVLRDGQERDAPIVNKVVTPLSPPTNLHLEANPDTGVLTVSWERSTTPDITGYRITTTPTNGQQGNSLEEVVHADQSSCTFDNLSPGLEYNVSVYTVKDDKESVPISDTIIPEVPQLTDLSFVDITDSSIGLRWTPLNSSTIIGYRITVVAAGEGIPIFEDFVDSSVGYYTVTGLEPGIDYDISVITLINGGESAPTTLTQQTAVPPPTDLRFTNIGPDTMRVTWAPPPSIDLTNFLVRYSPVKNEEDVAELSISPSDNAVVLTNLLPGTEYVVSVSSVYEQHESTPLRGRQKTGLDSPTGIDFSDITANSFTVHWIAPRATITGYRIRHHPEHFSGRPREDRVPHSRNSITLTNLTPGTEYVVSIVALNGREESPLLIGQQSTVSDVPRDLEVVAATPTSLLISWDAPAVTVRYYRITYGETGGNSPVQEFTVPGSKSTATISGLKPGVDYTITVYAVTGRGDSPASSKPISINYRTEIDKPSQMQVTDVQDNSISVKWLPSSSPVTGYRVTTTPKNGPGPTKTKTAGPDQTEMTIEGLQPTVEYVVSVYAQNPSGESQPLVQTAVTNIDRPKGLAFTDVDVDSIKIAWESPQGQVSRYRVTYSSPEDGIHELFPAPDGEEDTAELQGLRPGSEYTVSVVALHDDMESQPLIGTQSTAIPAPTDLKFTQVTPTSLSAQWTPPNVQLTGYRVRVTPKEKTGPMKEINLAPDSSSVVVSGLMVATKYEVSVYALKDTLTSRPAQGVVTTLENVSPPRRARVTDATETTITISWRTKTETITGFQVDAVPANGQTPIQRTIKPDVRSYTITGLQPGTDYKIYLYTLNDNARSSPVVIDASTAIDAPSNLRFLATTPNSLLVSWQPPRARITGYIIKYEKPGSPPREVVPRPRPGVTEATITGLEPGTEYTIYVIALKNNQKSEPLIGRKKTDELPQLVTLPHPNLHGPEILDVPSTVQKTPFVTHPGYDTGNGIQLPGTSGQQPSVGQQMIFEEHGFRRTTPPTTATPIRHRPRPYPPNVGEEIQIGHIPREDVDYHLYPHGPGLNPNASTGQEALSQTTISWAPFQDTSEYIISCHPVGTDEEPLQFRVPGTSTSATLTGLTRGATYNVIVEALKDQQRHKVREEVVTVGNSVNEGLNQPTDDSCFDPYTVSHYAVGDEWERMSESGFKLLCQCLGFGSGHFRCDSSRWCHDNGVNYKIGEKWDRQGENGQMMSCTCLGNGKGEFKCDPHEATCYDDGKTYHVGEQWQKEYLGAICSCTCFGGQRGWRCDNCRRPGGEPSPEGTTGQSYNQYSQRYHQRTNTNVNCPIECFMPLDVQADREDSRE

For “N-terminal deletion product of TG2 (Δ1-15) (from UniProt P21980 16-687) (enzyme)”, the binding capacity of the wild type was 40%.

Substance “TG2 FN binding site mutant (D94A, D97A) (from UniProt P21980 2-687) (enzyme)” has a binding compared to wild type TG2 of 50%.
